Measurements taken from US20230158141A1 (YAFEI SHANGHAI BIOLOG MEDICINE SCIENCE AND TECHNOLOGY, published 2023).
Numbering of substitutions follows the chain as printed.

T1: IL-10R1-Fc (UniProt Q13651 22-235, limits assumed)
T1 sequence (looked up): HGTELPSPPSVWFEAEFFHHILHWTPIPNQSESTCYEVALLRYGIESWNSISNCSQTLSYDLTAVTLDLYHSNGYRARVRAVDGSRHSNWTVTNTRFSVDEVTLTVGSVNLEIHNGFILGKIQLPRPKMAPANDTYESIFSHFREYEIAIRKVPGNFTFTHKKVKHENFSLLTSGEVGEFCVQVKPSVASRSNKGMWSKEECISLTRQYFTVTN

T2: IL-10R2-Fc/His (UniProt Q08334 20-220, limits assumed)
T2 sequence (looked up): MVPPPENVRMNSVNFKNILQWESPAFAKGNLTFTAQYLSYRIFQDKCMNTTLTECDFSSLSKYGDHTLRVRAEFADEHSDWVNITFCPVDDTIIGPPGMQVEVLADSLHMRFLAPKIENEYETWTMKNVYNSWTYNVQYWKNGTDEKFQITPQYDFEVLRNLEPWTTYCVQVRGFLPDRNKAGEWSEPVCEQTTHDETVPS

B1: IL-10 Phe143Cys-S48 (ligand, human, UniProt P22301 19-178, looked up)
chain: SPGQGTQSENSCTHFPGNLPNMLRDLRDAFSRVKTFFQMKDQLDNLLLKESLLEDFKGYLGCQALSEMIQFYLEEVMPQAENQDPDIKAHVNSLGENLKTLRLRLRRCHRFLPCENKSKAVEQVKNAFNKLQEKGIYKAMSECDIFINYIEAYMTMKIRN
modifications: S48 on Cys 143
notes: mature
B2: IL-10 Thr6Cys-S48 (ligand, human, UniProt P22301 19-178, looked up)
chain: B1 chain with T6C, C143F
modifications: S48 on Cys 6
notes: mature
B3: IL-10 Ser8Cys-R4-5 (ligand, human, UniProt P22301 19-178, looked up)
chain: B1 chain with S8C, C143F
modifications: R4-5 on Cys 8
notes: mature
B4: IL-10 Ser118Cys-R4-5 (ligand, human, UniProt P22301 19-178, looked up)
chain: B1 chain with S118C, C143F
modifications: R4-5 on Cys 118
notes: mature
B5: IL-10 Thr155Cys-S48 (ligand, human, UniProt P22301 19-178, looked up)
chain: B1 chain with C143F, T155C
modifications: S48 on Cys 155
notes: mature
B6: IL-10 Ser93Cys-S48 (ligand, human, UniProt P22301 19-178, looked up)
chain: B1 chain with S93C, C143F
modifications: S48 on Cys 93
notes: mature; the row prints S in one column and Asp in the next
B7: IL-10 Ser141Cys-R4-7 (ligand, human, UniProt P22301 19-178, looked up)
chain: B1 chain with S141C, C143F
modifications: R4-7 on Cys 141
notes: mature
B8: IL-10 Ser51Cys-R4-7 (ligand, human, UniProt P22301 19-178, looked up)
chain: B1 chain with S51C, C143F
modifications: R4-7 on Cys 51
notes: mature
B9: IL-10 Val91Cys-S48 (ligand, human, UniProt P22301 19-178, looked up)
chain: B1 chain with V91C, C143F
modifications: S48 on Cys 91
notes: mature
B10: IL-10 Ser11Cys-R4-7 (ligand, human, UniProt P22301 19-178, looked up)
chain: B1 chain with S11C, C143F
modifications: R4-7 on Cys 11
notes: mature
B11: IL-10 Tyr149Cys-R4-4 (ligand, human, UniProt P22301 19-178, looked up)
chain: B1 chain with C143F, Y149C
modifications: R4-4 on Cys 149
notes: mature
B12: IL-10 Ser118Cys-S48 (ligand, human, UniProt P22301 19-178, looked up)
chain: B1 chain with S118C, C143F
modifications: S48 on Cys 118
notes: mature
B13: IL-10 Tyr137Cys-R4-4 (ligand, human, UniProt P22301 19-178, looked up)
chain: B1 chain with Y137C, C143F
modifications: R4-4 on Cys 137
notes: mature
B14: IL-10 Tyr149Cys-S48 (ligand, human, UniProt P22301 19-178, looked up)
chain: B1 chain with C143F, Y149C
modifications: S48 on Cys 149
notes: mature
B15: IL-10 Thr155Cys-R4-7 (ligand, human, UniProt P22301 19-178, looked up)
chain: B1 chain with C143F, T155C
modifications: R4-7 on Cys 155
notes: mature
B16: IL-10 Ser51Cys-S48 (ligand, human, UniProt P22301 19-178, looked up)
chain: B1 chain with S51C, C143F
modifications: S48 on Cys 51
notes: mature
B17: IL-10 Tyr72Cys-S48 (ligand, human, UniProt P22301 19-178, looked up)
chain: B1 chain with Y72C, C143F
modifications: S48 on Cys 72
notes: mature
B18: IL-10 Thr13Cys-S48 (ligand, human, UniProt P22301 19-178, looked up)
chain: B1 chain with T13C, C143F
modifications: S48 on Cys 13
notes: mature
B19: IL-10 Ser141Cys-S48 (ligand, human, UniProt P22301 19-178, looked up)
chain: B1 chain with S141C, C143F
modifications: S48 on Cys 141
notes: mature
B20: IL-10 Val91Cys-R4-5 (ligand, human, UniProt P22301 19-178, looked up)
chain: B1 chain with V91C, C143F
modifications: R4-5 on Cys 91
notes: mature
B21: IL-10 Ser11Cys-S48 (ligand, human, UniProt P22301 19-178, looked up)
chain: B1 chain with S11C, C143F
modifications: S48 on Cys 11
notes: mature
B22: IL-10 Tyr137Cys-S48 (ligand, human, UniProt P22301 19-178, looked up)
chain: B1 chain with Y137C, C143F
modifications: S48 on Cys 137
notes: mature
B23: IL-10 Thr13Cys-R4-6 (ligand, human, UniProt P22301 19-178, looked up)
chain: B1 chain with T13C, C143F
modifications: R4-6 on Cys 13
notes: mature
B24: IL-10 Tyr72Cys-R4-4 (ligand, human, UniProt P22301 19-178, looked up)
chain: B1 chain with Y72C, C143F
modifications: R4-4 on Cys 72
notes: mature
B25: IL-10 Ser8Cys-S48 (ligand, human, UniProt P22301 19-178, looked up)
chain: B1 chain with S8C, C143F
modifications: S48 on Cys 8
notes: mature
B26: IL-10 Thr35Cys-R4-6 (ligand, human, UniProt P22301 19-178, looked up)
chain: B1 chain with T35C, C143F
modifications: R4-6 on Cys 35
notes: mature
B27: IL-10 Ser93Cys-R4-2 (ligand, human, UniProt P22301 19-178, looked up)
chain: B1 chain with S93C, C143F
modifications: R4-2 on Cys 93
notes: as for B6
B28: IL-10 Phe15Cys-R4-8 (ligand, human, UniProt P22301 19-178, looked up)
chain: B1 chain with F15C, C143F
modifications: R4-8 on Cys 15
notes: mature
B29: IL-10 Asn92Cys-S48 (ligand, human, UniProt P22301 19-178, looked up)
chain: B1 chain with N92C, C143F
modifications: S48 on Cys 92
notes: mature
B30: IL-10 Ile87Cys-R4-6 (ligand, human, UniProt P22301 19-178, looked up)
chain: B1 chain with I87C, C143F
modifications: R4-6 on Cys 87
notes: mature
B31: IL-10 Glu122Cys-R4-12 (ligand, human, UniProt P22301 19-178, looked up)
chain: B1 chain with E122C, C143F
modifications: R4-12 on Cys 122
notes: mature
B32: IL-10 Ala29Cys-R4-5 (ligand, human, UniProt P22301 19-178, looked up)
chain: B1 chain with A29C, C143F
modifications: R4-5 on Cys 29
notes: mature
B33: IL-10 Asp86Cys-R4-11 (ligand, human, UniProt P22301 19-178, looked up)
chain: B1 chain with D86C, C143F
modifications: R4-11 on Cys 86
notes: mature
B34: IL-10 Arg102Cys-R4-20 (ligand, human, UniProt P22301 19-178, looked up)
chain: B1 chain with R102C, C143F
modifications: R4-20 on Cys 102
notes: mature
B35: IL-10 Asn92Cys-R4-18 (ligand, human, UniProt P22301 19-178, looked up)
chain: B1 chain with N92C, C143F
modifications: R4-18 on Cys 92
notes: mature
B36: IL-10 Glu81Cys-R4-12 (ligand, human, UniProt P22301 19-178, looked up)
chain: B1 chain with E81C, C143F
modifications: R4-12 on Cys 81
notes: mature
B37: IL-10 Arg102Cys-S48 (ligand, human, UniProt P22301 19-178, looked up)
chain: B1 chain with R102C, C143F
modifications: S48 on Cys 102
notes: mature
B38: IL-10 Glu96Cys-R4-12 (ligand, human, UniProt P22301 19-178, looked up)
chain: B1 chain with E96C, C143F
modifications: R4-12 on Cys 96
notes: mature
B39: IL-10 Arg106Cys-S48 (ligand, human, UniProt P22301 19-178, looked up)
chain: B1 chain with R106C, C143F
modifications: S48 on Cys 106
notes: mature
B40: IL-10 Ala29Cys-S48 (ligand, human, UniProt P22301 19-178, looked up)
chain: B1 chain with A29C, C143F
modifications: S48 on Cys 29
notes: mature
B41: IL-10 Asp86Cys-S48 (ligand, human, UniProt P22301 19-178, looked up)
chain: B1 chain with D86C, C143F
modifications: S48 on Cys 86
notes: mature
B42: IL-10 Ala89Cys-R4-1 (ligand, human, UniProt P22301 19-178, looked up)
chain: B1 chain with A89C, C143F
modifications: R4-1 on Cys 89
notes: mature
B43: IL-10 Gln123Cys-R4-19 (ligand, human, UniProt P22301 19-178, looked up)
chain: B1 chain with Q123C, C143F
modifications: R4-19 on Cys 123
notes: mature
B44: IL-10 Gln123Cys-S48 (ligand, human, UniProt P22301 19-178, looked up)
chain: B1 chain with Q123C, C143F
modifications: S48 on Cys 123
notes: mature
B45: IL-10 Glu96Cys-S48 (ligand, human, UniProt P22301 19-178, looked up)
chain: B1 chain with E96C, C143F
modifications: S48 on Cys 96
notes: mature
B46: IL-10 Asn126Cys-S48 (ligand, human, UniProt P22301 19-178, looked up)
chain: B1 chain with N126C, C143F
modifications: S48 on Cys 126
notes: mature
B47: IL-10 Glu122Cys-S48 (ligand, human, UniProt P22301 19-178, looked up)
chain: B1 chain with E122C, C143F
modifications: S48 on Cys 122
notes: mature
B48: IL-10 Ile87Cys-S48 (ligand, human, UniProt P22301 19-178, looked up)
chain: B1 chain with I87C, C143F
modifications: S48 on Cys 87
notes: mature
B49: IL-10 Glu81Cys-S48 (ligand, human, UniProt P22301 19-178, looked up)
chain: B1 chain with E81C, C143F
modifications: S48 on Cys 81
notes: mature
B50: IL-10 Asp25Cys-R4-11 (ligand, human, UniProt P22301 19-178, looked up)
chain: B1 chain with D25C, C143F
modifications: R4-11 on Cys 25
notes: mature
B51: IL-10 Asn126Cys-R4-18 (ligand, human, UniProt P22301 19-178, looked up)
chain: B1 chain with N126C, C143F
modifications: R4-18 on Cys 126
notes: mature
B52: IL-10 Arg106Cys-R4-7 (ligand, human, UniProt P22301 19-178, looked up)
chain: B1 chain with R106C, C143F
modifications: R4-7 on Cys 106
notes: mature
B53: IL-10 Ala89Cys-S48 (ligand, human, UniProt P22301 19-178, looked up)
chain: B1 chain with A89C, C143F
modifications: S48 on Cys 89
notes: mature

These binders were tested against T1, IL-10R1-Fc (assay: ELISA, IL-10R1-Fc coated).

Decreased fold of binding to ligand after Conjugating with S48 [fold]	Binding recovery (>60%) [%]	Binder
7	–	B1
3	–	B2
–	100	B3
–	100	B4
3	–	B5
3	–	B6
–	112	B7
–	96.7	B8
3	–	B9
–	133	B10
–	115	B11
3	–	B12
–	99.1	B13
5	–	B14
–	98.1	B15
3	–	B16
3	–	B17
7	–	B18
19	–	B19
–	97.2	B20
9	–	B21
5	–	B22
–	99.1	B23
–	109	B24
3	–	B25
–	90.1	B26
–	100	B27

These binders were tested against T2, IL-10R2-Fc/His (assay: ELISA, IL-10R2-Fc/His coated).

Binding recovery (>60%) [%]	Decreased fold of binding to ligand after Conjugating with S48 [fold]	Binder
90	–	B28
–	3	B29
95.7	–	B30
99.8	–	B31
78	–	B32
81	–	B33
99	–	B34
86.4	–	B35
93.6	–	B36
–	3	B37
98	–	B38
–	3	B39
–	3	B40
–	3	B41
78.7	–	B42
96.5	–	B43
–	3	B44
–	3	B45
–	3	B46
–	3	B47
–	4	B48
–	3	B49
91.5	–	B50
99	–	B51
99.6	–	B52
–	5	B53
